Results published in IntAct's records for PubMed 27462807.

B1: TP53-binding protein 1 (Homo sapiens), Q12888 (parent)
chain: MDPTGSQLDSDFSQQDTPCLIIEDSQPESQVLEDDSGSHFSMLSRHLPNLQTHKENPVLDVVSNPEQTAGEERGDGNSGFNEHLKENKVADPVDSSNLDTCGSISQVIEQLPQPNRTSSVLGMSVESAPAVEEEKGEELEQKEKEKEEDTSGNTTHSLGAEDTASSQLGFGVLELSQSQDVEENTVPYEVDKEQLQSVTTNSGYTRLSDVDANTAIKHEEQSNEDIPIAEQSSKDIPVTAQPSKDVHVVKEQNPPPARSEDMPFSPKASVAAMEAKEQLSAQELMESGLQIQKSPEPEVLSTQEDLFDQSNKTVSSDGCSTPSREEGGCSLASTPATTLHLLQLSGQRSLVQDSLSTNSSDLVAPSPDAFRSTPFIVPSSPTEQEGRQDKPMDTSVLSEEGGEPFQKKLQSGEPVELENPPLLPESTVSPQASTPISQSTPVFPPGSLPIPSQPQFSHDIFIPSPSLEEQSNDGKKDGDMHSSSLTVECSKTSEIEPKNSPEDLGLSLTGDSCKLMLSTSEYSQSPKMESLSSHRIDEDGENTQIEDTEPMSPVLNSKFVPAENDSILMNPAQDGEVQLSQNDDKTKGDDTDTRDDISILATGCKGREETVAEDVCIDLTCDSGSQAVPSPATRSEALSSVLDQEEAMEIKEHHPEEGSSGSEVEEIPETPCESQGEELKEENMESVPLHLSLTETQSQGLCLQKEMPKKECSEAMEVETSVISIDSPQKLAILDQELEHKEQEAWEEATSEDSSVVIVDVKEPSPRVDVSCEPLEGVEKCSDSQSWEDIAPEIEPCAENRLDTKEEKSVEYEGDLKSGTAETEPVEQDSSQPSLPLVRADDPLRLDQELQQPQTQEKTSNSLTEDSKMANAKQLSSDAEAQKLGKPSAHASQSFCESSSETPFHFTLPKEGDIIPPLTGATPPLIGHLKLEPKRHSTPIGISNYPESTIATSDVMSESMVETHDPILGSGKGDSGAAPDVDDKLCLRMKLVSPETEASEESLQFNLEKPATGERKNGSTAVAESVASPQKTMSVLSCICEARQENEARSEDPPTTPIRGNLLHFPSSQGEEEKEKLEGDHTIRQSQQPMKPISPVKDPVSPASQKMVIQGPSSPQGEAMVTDVLEDQKEGRSTNKENPSKALIERPSQNNIGIQTMECSLRVPETVSAATQTIKNVCEQGTSTVDQNFGKQDATVQTERGSGEKPVSAPGDDTESLHSQGEEEFDMPQPPHGHVLHRHMRTIREVRTLVTRVITDVYYVDGTEVERKVTEETEEPIVECQECETEVSPSQTGGSSGDLGDISSFSSKASSLHRTSSGTSLSAMHSSGSSGKGAGPLRGKTSGTEPADFALPSSRGGPGKLSPRKGVSQTGTPVCEEDGDAGLGIRQGGKAPVTPRGRGRRGRPPSRTTGTRETAVPGPLGIEDISPNLSPDDKSFSRVVPRVPDSTRRTDVGAGALRRSDSPEIPFQAAAGPSDGLDASSPGNSFVGLRVVAKWSSNGYFYSGKITRDVGAGKYKLLFDDGYECDVLGKDILLCDPIPLDTEVTALSEDEYFSAGVVKGHRKESGELYYSIEKEGQRKWYKRMAVILSLEQGNRLREQYGLGPYEAVTPLTKAADISLDNLVEGKRKRRSNVSSPATPTASSSSSTTPTRKITESPRASMGVLSGKRKLITSEEERSPAKRGRKSATVKPGAVGAGEFVSPCESGDNTGEPSALEEQRGPLPLNKTLFLGYAFLLTMATTSDKLASRSKLPDGPTGSSEEEEEFLEIPPFNKQYTESQLRAGAGYILEDFNEAQCNTAYQCLLIADQHCRTRKYFLCLASGIPCVSHVWVHDSCHANQLQNYRNYLLPAGYSLEEQRILDWQPRENPFQNLKVLLVSDQQQNFLELWSEILMTGGAASVKQHHSSAHNKDIALGVFDVVVTDPSCPASVLKCAEALQLPVVSQEWVIQCLIVGERIGFKQHPKYKHDYVSH

Variants of: B1
Conditions: with H2BC10, P62807

effect of a mutation on the interaction	Variant
decreasing interaction	K1628C

Variants of: B1
Conditions: with H2BC10, P62807
Remark: another data set of the same source

effect of a mutation on the interaction	Variant
with no effect	T1609C
